Source: patent US20220332804A1 (CSL INNOVATION, published 2022)

Experiments:
Assay in all cases: SPR, KD relative to WT C2;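 note: biacore SPR at 37 °C, anti-C2 mAbs captured via immobilised goat anti-human IgG, C2 alanine or serine surface mutants as analytes, 1:1 model fitted, double-referenced sensograms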
human C2 S720A = biological target: T1, human C2 S720A (human, UniProt P06681 21-752)
T1 sequence: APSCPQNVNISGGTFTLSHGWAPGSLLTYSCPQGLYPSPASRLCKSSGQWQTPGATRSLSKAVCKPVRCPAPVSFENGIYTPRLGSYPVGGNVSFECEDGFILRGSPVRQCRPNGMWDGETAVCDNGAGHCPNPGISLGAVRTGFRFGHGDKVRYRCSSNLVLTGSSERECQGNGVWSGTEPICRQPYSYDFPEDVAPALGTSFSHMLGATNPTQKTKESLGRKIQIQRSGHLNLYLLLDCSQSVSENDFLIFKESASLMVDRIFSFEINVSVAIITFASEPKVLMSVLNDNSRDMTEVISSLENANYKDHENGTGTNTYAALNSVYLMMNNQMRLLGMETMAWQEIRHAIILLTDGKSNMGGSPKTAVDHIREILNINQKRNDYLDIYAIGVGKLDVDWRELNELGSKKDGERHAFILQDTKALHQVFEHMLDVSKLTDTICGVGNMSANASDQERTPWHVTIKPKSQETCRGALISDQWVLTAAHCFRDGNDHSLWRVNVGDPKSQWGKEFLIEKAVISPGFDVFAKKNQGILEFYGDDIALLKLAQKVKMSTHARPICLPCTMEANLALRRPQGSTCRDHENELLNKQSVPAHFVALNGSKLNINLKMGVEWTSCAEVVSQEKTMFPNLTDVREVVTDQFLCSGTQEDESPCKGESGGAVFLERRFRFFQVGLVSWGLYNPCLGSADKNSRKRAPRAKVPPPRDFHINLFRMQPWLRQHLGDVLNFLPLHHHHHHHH
Procedure: (§1) Surface plasmon resonance (SPR, Biacore) was used for all binding affinity analyses. In brief, goat anti-human IgG was directly immobilised onto the carboxymethyl dextran surface of CM5 sensorchips to approximately 12,000 RU using standard NHS/EDC chemistry at pH 5. The immobilised antibody surface was pre-conditioned with ten injections of polyclonal human IgG (Privigen 60 s) prepared at 1 μg/mL. Ligands (anti-C2 mAbs) were captured at the beginning of each cycle as described below. An adjacent spot or flow cell in which only Polyclonal IgG was capture was used as a reference surface. The goat anti-human IgG Fc antibody surface was regenerate in 100 mM H3PO4, injected for 45 seconds at the end of each cycle. Experiments were performed at 37° C. and the flow rate of each experiment was kept constant at 30 μL/min.
(§2) Sensogram data was double-referenced against a reference anti-IgG surface (i.e. minus anti-C2 mAb) and blank buffer injections obtained within each experiment. The binding data was fit to 1:1 (kinetic or steady-state) model using local Rmax and null refraction index (RI=0) when appropriate. Buffers and solutions were filtered (0.22 μm) prior to use.

human C2 I438A = biological target: T2, human C2 I438A (human, UniProt P06681 21-752)
T2 sequence: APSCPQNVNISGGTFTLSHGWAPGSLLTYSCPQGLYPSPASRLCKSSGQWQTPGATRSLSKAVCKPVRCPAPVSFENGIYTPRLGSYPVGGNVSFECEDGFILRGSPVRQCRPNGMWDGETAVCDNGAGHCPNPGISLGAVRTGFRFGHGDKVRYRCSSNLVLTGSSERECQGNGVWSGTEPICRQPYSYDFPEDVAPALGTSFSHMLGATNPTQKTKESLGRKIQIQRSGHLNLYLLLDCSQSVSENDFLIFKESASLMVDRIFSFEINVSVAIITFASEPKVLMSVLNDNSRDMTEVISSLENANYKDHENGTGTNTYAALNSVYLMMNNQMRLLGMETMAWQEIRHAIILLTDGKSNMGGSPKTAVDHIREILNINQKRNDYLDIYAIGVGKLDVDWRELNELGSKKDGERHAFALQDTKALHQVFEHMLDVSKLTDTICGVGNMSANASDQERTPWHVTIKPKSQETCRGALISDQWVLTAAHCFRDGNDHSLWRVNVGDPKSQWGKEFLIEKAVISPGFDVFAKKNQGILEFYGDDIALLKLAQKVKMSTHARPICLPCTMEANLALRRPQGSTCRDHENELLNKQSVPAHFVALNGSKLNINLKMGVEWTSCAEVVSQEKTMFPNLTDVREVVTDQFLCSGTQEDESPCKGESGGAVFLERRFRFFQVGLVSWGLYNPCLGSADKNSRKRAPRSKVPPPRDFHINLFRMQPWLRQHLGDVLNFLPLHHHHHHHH
Procedure: as §1, §2

human C2 K531A = biological target: T3, human C2 K531A (human, UniProt P06681 21-752)
T3 sequence: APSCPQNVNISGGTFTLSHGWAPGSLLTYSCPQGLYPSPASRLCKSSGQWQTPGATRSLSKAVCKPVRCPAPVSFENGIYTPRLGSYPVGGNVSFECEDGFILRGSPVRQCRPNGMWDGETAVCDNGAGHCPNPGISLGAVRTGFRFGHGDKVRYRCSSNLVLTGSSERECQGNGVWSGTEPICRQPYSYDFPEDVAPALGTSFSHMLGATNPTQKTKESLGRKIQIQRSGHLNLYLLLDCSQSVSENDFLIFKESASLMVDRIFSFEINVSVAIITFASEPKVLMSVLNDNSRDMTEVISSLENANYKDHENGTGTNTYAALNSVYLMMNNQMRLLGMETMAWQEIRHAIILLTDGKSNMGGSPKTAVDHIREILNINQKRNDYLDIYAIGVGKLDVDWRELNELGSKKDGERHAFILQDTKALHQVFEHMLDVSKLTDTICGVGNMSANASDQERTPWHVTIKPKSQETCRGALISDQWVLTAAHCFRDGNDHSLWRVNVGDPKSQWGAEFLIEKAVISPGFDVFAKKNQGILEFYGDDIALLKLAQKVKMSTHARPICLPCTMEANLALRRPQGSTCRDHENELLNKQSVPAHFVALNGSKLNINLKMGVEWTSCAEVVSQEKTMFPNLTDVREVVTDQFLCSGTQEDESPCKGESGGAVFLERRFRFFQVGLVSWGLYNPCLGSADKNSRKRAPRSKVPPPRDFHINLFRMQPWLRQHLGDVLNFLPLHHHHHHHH
Procedure: as §1, §2

human C2 N621A = biological target: T4, human C2 N621A (human, UniProt P06681 21-752)
T4 sequence: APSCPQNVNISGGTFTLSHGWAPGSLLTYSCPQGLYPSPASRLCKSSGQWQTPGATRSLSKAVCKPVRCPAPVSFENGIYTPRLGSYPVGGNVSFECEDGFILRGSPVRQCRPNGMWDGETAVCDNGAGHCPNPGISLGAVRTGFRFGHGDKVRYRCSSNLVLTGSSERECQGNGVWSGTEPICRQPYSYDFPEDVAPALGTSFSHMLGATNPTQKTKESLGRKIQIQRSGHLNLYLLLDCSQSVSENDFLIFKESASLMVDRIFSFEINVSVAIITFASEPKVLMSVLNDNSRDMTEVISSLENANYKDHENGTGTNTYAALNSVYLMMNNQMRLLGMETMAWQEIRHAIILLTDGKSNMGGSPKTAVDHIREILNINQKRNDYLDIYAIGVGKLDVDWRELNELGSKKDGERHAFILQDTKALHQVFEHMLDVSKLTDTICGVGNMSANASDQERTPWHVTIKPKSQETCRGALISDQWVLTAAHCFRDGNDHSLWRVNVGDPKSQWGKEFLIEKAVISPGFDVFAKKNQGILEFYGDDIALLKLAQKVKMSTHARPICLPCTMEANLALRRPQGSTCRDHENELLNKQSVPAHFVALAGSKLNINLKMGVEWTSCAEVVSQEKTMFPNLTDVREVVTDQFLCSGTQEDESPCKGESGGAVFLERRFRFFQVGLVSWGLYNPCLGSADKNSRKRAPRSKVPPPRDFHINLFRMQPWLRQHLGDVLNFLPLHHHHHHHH
Procedure: as §1, §2

B1: RF16-226 (antibody, human IgG4 S228P, lambda)
heavy: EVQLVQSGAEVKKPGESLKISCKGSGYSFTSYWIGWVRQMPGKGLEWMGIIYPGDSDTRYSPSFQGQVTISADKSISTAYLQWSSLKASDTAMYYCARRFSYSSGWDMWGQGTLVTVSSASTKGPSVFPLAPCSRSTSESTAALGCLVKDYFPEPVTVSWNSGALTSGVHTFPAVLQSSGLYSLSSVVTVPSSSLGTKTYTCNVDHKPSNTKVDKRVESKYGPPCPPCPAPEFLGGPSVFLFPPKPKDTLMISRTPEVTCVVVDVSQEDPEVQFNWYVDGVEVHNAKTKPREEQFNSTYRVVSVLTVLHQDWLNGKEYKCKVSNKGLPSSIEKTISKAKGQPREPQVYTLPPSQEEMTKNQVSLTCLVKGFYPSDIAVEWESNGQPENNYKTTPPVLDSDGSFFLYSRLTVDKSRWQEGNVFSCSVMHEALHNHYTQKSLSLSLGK
light: SYELTQPPSVSVSPGQTARITCSGDALTSKYVAWYQQKSGLAPLLVIYEDTRRPSGIPAKFSGSSSGSVATLTISGAHGDDEADYYCYSTDASGHQRVFGGGTKLTVLSQPKAAPSVTLFPPSSEELQANKATLVCLISDFYPGAVTVAWKADGSPVKAGVETTKPSKQSNNKYAASSYLSLTPEQWKSHRSYSCQVTHEGSTVEKTVAPTECS
notes: pH-dependent anti-C2 antibody from a phage display library; also called WT
B1 was tested, and the Fold diff (human C2 S720A) was 1 fold, the Fold diff (human C2 I438A) was 1 fold and the Fold diff (human C2 K531A) was 1 fold. The Fold diff (human C2 N621A) was 5 fold.
